Source: patent US20250051414A1

Columns and labels:
[1] = biological target: IL-2Rβ/γ Fc heterodimer (UniProt P14784); assay: BLI (Octet RED384), biotinylated monomeric IL-2/Fc on streptavidin sensors, 1:1 kinetic fit
[2] = biological target: IL2-Ra ectodomain with C-terminal 6xHis tag (UniProt P01589); assay: BLI (Octet RED384), biotinylated monomeric IL-2/Fc on streptavidin sensors, equilibrium binding
Sequence of UniProt P01589 (P01589 other isoform, or with tags, fused parts or gaps limits assumed): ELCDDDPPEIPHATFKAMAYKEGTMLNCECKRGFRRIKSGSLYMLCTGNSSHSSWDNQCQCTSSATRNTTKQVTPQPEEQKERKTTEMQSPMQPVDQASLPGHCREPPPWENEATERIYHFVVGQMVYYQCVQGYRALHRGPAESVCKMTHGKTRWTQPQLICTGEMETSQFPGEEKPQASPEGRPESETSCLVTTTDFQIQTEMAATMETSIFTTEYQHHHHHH

Sequence of UniProt P14784 (P14784 other isoform, or with tags, fused parts or gaps, chain 1 of 2): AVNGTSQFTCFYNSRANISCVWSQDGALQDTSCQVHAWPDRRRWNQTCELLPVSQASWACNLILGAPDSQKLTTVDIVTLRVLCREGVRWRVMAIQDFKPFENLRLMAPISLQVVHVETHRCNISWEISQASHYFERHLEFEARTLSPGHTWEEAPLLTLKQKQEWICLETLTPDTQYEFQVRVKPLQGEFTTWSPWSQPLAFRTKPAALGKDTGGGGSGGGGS
Sequence of UniProt P14784 (P31785 other isoform, or with tags, fused parts or gaps, chain 2 of 2, further chain): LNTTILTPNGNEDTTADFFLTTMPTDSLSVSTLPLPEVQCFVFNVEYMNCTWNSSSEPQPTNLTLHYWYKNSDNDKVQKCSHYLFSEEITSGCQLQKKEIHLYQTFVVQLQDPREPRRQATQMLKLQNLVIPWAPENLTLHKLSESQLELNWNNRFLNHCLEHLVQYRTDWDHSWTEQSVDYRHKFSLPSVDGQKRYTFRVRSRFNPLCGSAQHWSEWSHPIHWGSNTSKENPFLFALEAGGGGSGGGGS

| Kd [1] [nM] | Kd [2] [nM] | Substance |
| --- | --- | --- |
| 2.81 | 9.48 | F42Q N-Term (Fc fusion) |
| 22.4 | 0.43 | H16N N-term (Fc fusion) |
| 24 | 1.01 | N88D C-term (Fc fusion) |
| 3.99 | 0.71 | R38Q N-term (Fc fusion) |
| 7.56 | 0.69 | V91K C-term (Fc fusion) |
| 3.04 | 0.54 | WT C-term (Fc fusion) |
| 5.3 | 0.19 | WT N-term (Fc fusion) |
